Measurements published in article PMC2605707.

Biological target: RDE-4 variant R2C (dsRBM2 and C-terminus) (C. elegans)
Experiment: SEC

stoichiometry N: 2
Substance: RDE-4 variant R2C (dsRBM2 and C-terminus) (domain or fragment)
